What was measured:
MERTK = MERTK (UniProt Q12866); assay: phosphorylation enrichment, bacterial display (enrichment ratio); higher = better substrate or ligand; peptides without Tyr show the background
FGFR1 = FGFR1 (UniProt P11362); assay: as above
Hck = Hck (UniProt P08631); assay: as above
c-Abl (mouse) = assay: as above
AncSZ = assay: as above
EPHB2 = EPHB2 (UniProt P29323); assay: as above
c-Src = assay: as above
Fyn = Fyn (UniProt P06241); assay: as above
EPHB1 = EPHB1 (UniProt P54762); assay: as above
Jak2 = Jak2 (UniProt O60674); assay: as above
Sequence of Jak2 (O60674 whole entry, looked up): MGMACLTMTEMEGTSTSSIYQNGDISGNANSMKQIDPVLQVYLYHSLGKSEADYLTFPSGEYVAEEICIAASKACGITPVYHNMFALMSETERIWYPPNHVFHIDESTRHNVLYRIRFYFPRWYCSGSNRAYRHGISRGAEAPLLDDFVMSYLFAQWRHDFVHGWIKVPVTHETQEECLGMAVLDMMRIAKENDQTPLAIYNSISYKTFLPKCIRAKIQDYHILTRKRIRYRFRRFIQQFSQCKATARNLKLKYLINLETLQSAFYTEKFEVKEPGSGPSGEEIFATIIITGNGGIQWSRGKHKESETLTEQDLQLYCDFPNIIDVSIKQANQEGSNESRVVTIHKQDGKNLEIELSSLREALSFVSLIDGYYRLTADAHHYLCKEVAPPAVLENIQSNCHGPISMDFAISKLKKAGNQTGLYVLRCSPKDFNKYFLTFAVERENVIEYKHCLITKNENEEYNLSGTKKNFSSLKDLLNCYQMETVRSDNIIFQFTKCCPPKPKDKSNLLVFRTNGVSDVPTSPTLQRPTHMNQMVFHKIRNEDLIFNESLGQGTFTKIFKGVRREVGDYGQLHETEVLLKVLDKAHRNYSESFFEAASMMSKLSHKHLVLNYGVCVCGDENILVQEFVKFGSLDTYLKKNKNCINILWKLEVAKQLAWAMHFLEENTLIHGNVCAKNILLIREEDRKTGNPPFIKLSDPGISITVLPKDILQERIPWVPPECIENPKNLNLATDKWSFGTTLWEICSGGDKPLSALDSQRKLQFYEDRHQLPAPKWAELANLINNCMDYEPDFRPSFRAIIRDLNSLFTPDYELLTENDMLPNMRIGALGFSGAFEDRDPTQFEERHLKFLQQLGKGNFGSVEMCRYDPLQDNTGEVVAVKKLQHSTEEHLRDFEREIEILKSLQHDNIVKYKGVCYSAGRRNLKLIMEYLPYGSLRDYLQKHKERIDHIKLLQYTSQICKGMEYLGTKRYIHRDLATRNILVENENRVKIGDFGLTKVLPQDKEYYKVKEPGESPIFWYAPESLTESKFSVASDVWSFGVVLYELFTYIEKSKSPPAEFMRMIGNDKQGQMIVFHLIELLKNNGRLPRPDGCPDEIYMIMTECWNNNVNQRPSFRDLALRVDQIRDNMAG

Fer (mouse) = assay: as above
Fes = Fes (UniProt P07332); assay: as above
Sequence of Fes (P07332 whole entry, looked up): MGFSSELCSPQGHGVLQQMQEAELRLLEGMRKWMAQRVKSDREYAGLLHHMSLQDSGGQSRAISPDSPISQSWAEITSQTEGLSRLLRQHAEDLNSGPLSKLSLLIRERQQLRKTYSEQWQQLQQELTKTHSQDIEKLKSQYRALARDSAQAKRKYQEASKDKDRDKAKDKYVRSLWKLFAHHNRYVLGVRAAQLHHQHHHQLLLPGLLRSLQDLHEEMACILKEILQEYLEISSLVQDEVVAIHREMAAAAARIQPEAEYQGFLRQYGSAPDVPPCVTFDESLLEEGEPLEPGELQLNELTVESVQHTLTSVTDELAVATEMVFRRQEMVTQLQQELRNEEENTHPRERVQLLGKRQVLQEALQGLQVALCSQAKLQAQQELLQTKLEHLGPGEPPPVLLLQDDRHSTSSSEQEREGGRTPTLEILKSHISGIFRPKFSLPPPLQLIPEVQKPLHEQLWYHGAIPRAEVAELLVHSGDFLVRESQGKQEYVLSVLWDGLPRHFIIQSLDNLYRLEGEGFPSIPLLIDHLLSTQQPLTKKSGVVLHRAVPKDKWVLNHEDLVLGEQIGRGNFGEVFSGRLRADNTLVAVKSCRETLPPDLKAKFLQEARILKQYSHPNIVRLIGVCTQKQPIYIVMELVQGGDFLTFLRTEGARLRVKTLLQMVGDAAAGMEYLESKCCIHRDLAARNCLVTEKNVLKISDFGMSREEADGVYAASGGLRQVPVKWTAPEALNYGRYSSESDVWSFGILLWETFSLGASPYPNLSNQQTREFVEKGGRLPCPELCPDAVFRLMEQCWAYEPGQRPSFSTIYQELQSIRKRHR

FGFR3 = FGFR3 (UniProt P22607); assay: as above
SHP2-C SH2 = assay: SH2 binding enrichment of the phosphorylated peptide, bacterial display (enrichment ratio); higher = better substrate or ligand; peptides without Tyr show the background
Grb2 SH2 = Grb2 SH2 (UniProt P62993); assay: as above
Sequence of Grb2 SH2 (P62993 whole entry, looked up): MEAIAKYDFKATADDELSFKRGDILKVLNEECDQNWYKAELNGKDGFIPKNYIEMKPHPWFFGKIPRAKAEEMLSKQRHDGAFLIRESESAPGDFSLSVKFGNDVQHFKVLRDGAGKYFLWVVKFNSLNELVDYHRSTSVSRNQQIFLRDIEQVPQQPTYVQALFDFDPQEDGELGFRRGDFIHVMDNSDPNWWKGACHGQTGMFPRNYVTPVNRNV

c-Src SH2 = assay: as above
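Wherever SH2 binding enrichment of the phosphorylated peptide, bacterial display is given: peptide library displayed on the E. coli surface as eCPX fusions, selected cells deep-sequenced, score is each peptide's frequency after selection divided by its frequency in the input.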
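Wherever phosphorylation enrichment, bacterial display is given: 11-residue human phosphosite peptides and single-mutation variants displayed on the E. coli surface, counted by deep sequencing, each peptide's frequency after selection divided by its frequency in the unselected input library; frequency after pTyr selection over input frequency; kinase dosed for 20-30% of maximal phosphorylation in three min.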

Sequence of FGFR1 (P11362 whole entry, looked up): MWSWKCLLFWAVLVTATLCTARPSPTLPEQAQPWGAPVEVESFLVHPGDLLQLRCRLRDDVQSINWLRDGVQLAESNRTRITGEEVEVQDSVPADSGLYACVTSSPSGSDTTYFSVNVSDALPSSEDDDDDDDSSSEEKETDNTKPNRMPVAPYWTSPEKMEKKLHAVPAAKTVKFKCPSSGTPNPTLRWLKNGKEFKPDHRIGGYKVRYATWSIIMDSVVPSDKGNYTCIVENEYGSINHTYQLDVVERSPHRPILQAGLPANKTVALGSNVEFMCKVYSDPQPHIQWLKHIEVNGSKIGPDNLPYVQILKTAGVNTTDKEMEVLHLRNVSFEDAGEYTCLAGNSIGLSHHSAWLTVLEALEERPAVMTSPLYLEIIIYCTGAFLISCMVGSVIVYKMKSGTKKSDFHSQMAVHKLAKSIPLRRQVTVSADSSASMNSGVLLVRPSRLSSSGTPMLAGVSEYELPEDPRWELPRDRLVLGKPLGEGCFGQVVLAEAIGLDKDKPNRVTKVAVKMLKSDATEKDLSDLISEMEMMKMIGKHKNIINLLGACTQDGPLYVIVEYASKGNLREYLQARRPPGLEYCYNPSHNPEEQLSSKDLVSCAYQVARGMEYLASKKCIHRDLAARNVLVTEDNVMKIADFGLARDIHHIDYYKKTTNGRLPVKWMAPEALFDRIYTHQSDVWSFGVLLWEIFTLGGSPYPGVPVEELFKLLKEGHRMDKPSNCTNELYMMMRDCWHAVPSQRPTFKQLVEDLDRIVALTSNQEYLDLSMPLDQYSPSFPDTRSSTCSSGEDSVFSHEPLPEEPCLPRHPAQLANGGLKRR
Sequence of Fyn (P06241 whole entry, looked up): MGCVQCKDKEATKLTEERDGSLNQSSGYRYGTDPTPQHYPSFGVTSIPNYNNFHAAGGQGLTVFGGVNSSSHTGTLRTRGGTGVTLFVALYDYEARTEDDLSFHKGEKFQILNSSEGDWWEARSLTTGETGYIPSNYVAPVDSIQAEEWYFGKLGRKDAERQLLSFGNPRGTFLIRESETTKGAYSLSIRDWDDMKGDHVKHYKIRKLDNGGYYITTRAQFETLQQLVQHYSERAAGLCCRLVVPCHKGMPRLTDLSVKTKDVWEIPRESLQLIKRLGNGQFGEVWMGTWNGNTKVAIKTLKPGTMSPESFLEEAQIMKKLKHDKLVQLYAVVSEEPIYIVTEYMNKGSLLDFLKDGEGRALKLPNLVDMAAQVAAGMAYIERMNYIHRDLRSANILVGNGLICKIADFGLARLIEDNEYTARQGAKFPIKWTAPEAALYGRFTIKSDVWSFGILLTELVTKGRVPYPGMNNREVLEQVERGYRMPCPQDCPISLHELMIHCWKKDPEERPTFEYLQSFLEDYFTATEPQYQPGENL
Sequence of MERTK (Q12866 whole entry, looked up): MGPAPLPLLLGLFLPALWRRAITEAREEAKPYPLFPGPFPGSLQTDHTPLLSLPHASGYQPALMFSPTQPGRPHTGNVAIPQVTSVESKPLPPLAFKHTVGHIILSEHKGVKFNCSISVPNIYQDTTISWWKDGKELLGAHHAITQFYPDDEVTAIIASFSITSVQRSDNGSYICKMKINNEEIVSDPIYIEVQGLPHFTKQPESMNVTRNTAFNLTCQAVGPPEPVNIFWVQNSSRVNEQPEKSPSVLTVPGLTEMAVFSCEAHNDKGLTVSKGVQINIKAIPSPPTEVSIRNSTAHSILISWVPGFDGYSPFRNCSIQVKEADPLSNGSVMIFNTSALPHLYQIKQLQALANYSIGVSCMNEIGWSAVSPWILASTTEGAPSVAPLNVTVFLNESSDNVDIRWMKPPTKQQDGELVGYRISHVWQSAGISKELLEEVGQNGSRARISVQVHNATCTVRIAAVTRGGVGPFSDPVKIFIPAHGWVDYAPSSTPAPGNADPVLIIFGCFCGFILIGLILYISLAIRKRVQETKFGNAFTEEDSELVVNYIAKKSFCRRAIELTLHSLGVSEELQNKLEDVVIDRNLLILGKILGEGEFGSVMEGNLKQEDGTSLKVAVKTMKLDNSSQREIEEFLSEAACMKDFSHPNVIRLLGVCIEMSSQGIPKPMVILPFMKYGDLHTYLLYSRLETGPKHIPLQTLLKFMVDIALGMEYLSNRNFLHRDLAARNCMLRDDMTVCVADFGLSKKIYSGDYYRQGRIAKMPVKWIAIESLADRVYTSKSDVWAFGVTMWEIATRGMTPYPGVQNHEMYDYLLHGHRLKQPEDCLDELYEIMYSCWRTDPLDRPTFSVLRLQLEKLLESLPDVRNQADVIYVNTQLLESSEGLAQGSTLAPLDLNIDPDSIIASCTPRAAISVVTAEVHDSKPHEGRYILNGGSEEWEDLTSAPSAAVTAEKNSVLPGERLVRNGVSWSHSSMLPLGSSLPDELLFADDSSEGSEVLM
Sequence of Hck (P08631 whole entry, looked up): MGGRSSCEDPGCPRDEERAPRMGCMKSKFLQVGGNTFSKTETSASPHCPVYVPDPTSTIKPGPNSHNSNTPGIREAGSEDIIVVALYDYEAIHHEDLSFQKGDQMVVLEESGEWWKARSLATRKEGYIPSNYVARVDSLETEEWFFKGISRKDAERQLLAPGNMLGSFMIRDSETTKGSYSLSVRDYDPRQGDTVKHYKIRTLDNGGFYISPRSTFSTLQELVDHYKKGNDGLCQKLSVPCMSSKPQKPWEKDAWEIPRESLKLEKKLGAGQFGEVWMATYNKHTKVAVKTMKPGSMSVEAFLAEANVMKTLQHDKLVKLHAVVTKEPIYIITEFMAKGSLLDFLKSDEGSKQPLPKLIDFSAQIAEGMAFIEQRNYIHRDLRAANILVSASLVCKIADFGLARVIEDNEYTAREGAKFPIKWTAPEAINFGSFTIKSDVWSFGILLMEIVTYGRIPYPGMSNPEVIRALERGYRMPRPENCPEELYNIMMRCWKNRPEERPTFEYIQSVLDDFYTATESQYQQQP

Sequence | phosphorylation enrichment (MERTK) | phosphorylation enrichment (FGFR1) | phosphorylation enrichment (Hck) | phosphorylation enrichment (c-Abl (mouse)) | phosphorylation enrichment (AncSZ) | phosphorylation enrichment (EPHB2) | phosphorylation enrichment (c-Src) | phosphorylation enrichment (Fyn) | phosphorylation enrichment (EPHB1) | phosphorylation enrichment (Jak2) | phosphorylation enrichment (Fer (mouse)) | phosphorylation enrichment (Fes) | phosphorylation enrichment (FGFR3) | SH2 binding enrichment (SHP2-C SH2) | SH2 binding enrichment (Grb2 SH2) | SH2 binding enrichment (c-Src SH2)
KTGNIYRTEYG [MRPL3_Y265_M261T] | 0.425 | 0.464 | 0.496 | 0.441 | 0.555 | 0.421 | 0.424 | 0.488 | 0.451 | 0.414 | 0.629 | 0.633 | 0.592 | 0.91 | 0.829 | 0.463
KVALVYGQMNE [ATP5F1B_Y269] | 0.38 | 0.443 | 1.05 | 0.65 | 0.785 | 0.495 | 1.97 | 1.47 | 0.446 | 0.769 | 0.525 | 1.13 | 0.606 | 0.734 | 0.851 | 0.57
KVDKEYEVHVR [GHR_Y226_R229H] | 0.416 | 0.474 | 0.497 | 0.576 | 0.934 | 0.548 | 0.444 | 0.485 | 0.68 | 0.725 | 0.498 | 0.956 | 0.555 | 0.566 | 0.804 | 0.52
KVGPGSLGSGG [RET_Y826_Y826S] | 0.3 | 0.308 | 0.323 | 0.482 | 0.4 | 0.353 | 0.374 | 0.352 | 0.29 | 0.466 | 0.293 | 0.489 | 0.366 | 0.526 | 0.778 | 0.447
KVITDYFVDMK [MPP4_Y566_YF] | 0.439 | 0.748 | 0.561 | 0.673 | 0.897 | 0.547 | 0.435 | 0.455 | 0.429 | 0.858 | 0.451 | 1.36 | 0.795 | 0.717 | 0.757 | 0.595
KVKSIYFHTQG [AR_Y916_P914S] | 0.379 | 0.414 | 0.414 | 0.563 | 0.69 | 0.449 | 0.436 | 0.51 | 0.542 | 0.614 | 0.367 | 0.718 | 0.544 | 0.793 | 0.641 | 0.568
KYLENYLNCLL [PLD2_Y169_R172C] | 0.52 | 0.989 | 0.456 | 1.03 | 1.1 | 0.776 | 0.498 | 0.476 | 1.18 | 1.28 | 0.707 | 1.47 | 1.05 | 0.835 | 0.983 | 0.747
LAEMNYVHRDL [EPHB1_Y740] | 0.659 | 0.412 | 0.362 | 1.15 | 1.32 | 0.632 | 0.432 | 0.529 | 0.441 | 1.4 | 0.32 | 0.709 | 0.503 | 0.578 | 0.882 | 0.403
LAETSYVTVLE [MAGEA1_Y276_K278T] | 0.708 | 0.915 | 0.862 | 0.903 | 1.65 | 0.968 | 0.496 | 0.702 | 0.674 | 1.02 | 0.67 | 1.65 | 1.31 | 2.48 | 0.73 | 1.25
LAIERYVVVSK [RHO_Y136_C140S] | 0.515 | 0.843 | 0.443 | 0.935 | 0.86 | 3.45 | 0.396 | 0.596 | 0.499 | 0.744 | 0.459 | 1.04 | 0.701 | 1.33 | 0.627 | 1.51
LANNEYYFQVC | 2.08 | 15.7 | 1.19 | 1.02 | 3.4 | 1.56 | 1.94 | 1.43 | 1.63 | 2.34 | 1.11 | 1.69 | 12.9 | 0.576 | 0.93 | 0.431
LARDIYKNDFF [ROS1_Y2110_YF] | 1.57 | 0.68 | 0.599 | 1.31 | 2.31 | 0.933 | 2.29 | 1.47 | 0.962 | 2.38 | 1.14 | 2.15 | 0.592 | 0.748 | 1.41 | 0.44
LARNMYDKEFF [MET_Y1230_D1228N_YF] | 0.578 | 0.602 | 0.694 | 0.793 | 1.03 | 0.592 | 0.626 | 0.529 | 0.706 | 1 | 0.541 | 1.01 | 0.62 | 0.739 | 0.427 | 0.541
LASLIYNFVLF [AQP6_Y231] | 7.85 | 3.53 | 5.89 | 4.1 | 1.73 | 4.52 | 7.23 | 7.62 | 1.93 | 1.51 | 14.5 | 2.2 | 3.34 | 0.989 | 1.11 | 0.692
LAVGDYMRRQK [ATM_Y1915_V1913G] | 0.476 | 0.437 | 0.504 | 0.555 | 0.696 | 0.41 | 0.503 | 0.545 | 0.441 | 0.691 | 0.504 | 0.734 | 0.411 | 0.695 | 0.597 | 0.37
LEDEVYAQKMK [TPM2_Y261] | 0.889 | 1.25 | 2.62 | 1.49 | 2.79 | 1.08 | 1.22 | 2.37 | 2.92 | 2.5 | 1.91 | 2.74 | 1.97 | 0.836 | 0.953 | 0.521
LEFGDCHPLKP [VPS35L_Y32_Y32C] | 0.472 | 0.763 | 0.777 | 0.884 | 1.63 | 0.802 | 0.602 | 0.841 | 0.863 | 1.16 | 1.24 | 1.97 | 1.52 | 0.613 | 0.963 | 0.529
LEKISYVFMKR [SSX7_Y48_YF] | 0.538 | 0.969 | 1.14 | 0.811 | 1.9 | 1.21 | 0.581 | 0.963 | 1.65 | 1.72 | 0.879 | 2.51 | 1.42 | 0.831 | 0.85 | 0.432
LFQAKYQIRFR [CRLF1_Y272_YF] | 0.868 | 1.03 | 0.524 | 1.31 | 1.83 | 0.69 | 1.02 | 0.643 | 0.698 | 1.64 | 0.972 | 1.6 | 1.35 | 1.32 | 1.19 | 0.813
LFSDHYSPSGR [TMPRSS12_Y23_YF] | 0.382 | 0.446 | 0.455 | 0.331 | 0.654 | 0.452 | 0.363 | 0.39 | 0.545 | 0.473 | 0.351 | 0.574 | 0.459 | 0.842 | 0.989 | 0.554
LGSVVYAHSKE [KCNQ2_Y226] | 0.424 | 0.445 | 0.403 | 0.449 | 0.527 | 0.437 | 0.413 | 0.407 | 0.473 | 0.559 | 0.416 | 0.596 | 0.419 | 0.754 | 0.809 | 0.467
LHQSTYQRFDV [SLC7A14_Y693_YF] | 1.19 | 1.14 | 1.77 | 0.838 | 1.31 | 1.17 | 2.69 | 1.83 | 1.45 | 0.652 | 0.955 | 1.32 | 1.18 | 0.635 | 1.03 | 0.897
LHQSTYQRYDV [SLC7A14_Y693] | 0.364 | 0.236 | 0.505 | 0.444 | 0.341 | 0.53 | 1.11 | 0.458 | 0.293 | 0.545 | 0.392 | 0.404 | 0.426 | 0.694 | 0.772 | 1.16
LHSEAYLKFIE [PBRM1_Y1610_YF] | 0.556 | 0.939 | 0.813 | 0.886 | 1.56 | 0.881 | 0.486 | 0.856 | 0.877 | 1.37 | 1.1 | 1.51 | 1.21 | 0.881 | 0.887 | 0.39
LIHLHYIRKDY [BBS4_Y43] | 0.377 | 0.517 | 0.444 | 0.632 | 1.21 | 0.63 | 0.393 | 0.548 | 0.602 | 0.857 | 0.447 | 1.14 | 0.763 | 1.88 | 1.69 | 1.71
LKEIHYPPYTD [ALDH3B2_Y362] | 0.573 | 0.645 | 0.929 | 0.763 | 1.18 | 0.744 | 0.917 | 0.718 | 0.735 | 1.01 | 0.584 | 1.17 | 0.826 | 0.975 | 0.896 | 0.654
LKVQVYILGRE [ASS1_Y359_G356V] | 1.36 | 1.34 | 1.49 | 2.44 | 3.58 | 1.88 | 1.39 | 1.13 | 1.58 | 3.33 | 1.59 | 5.15 | 1.95 | 0.968 | 1.46 | 0.804
LLANAYIFVVQ [L1CAM_Y418_YF] | 0.482 | 1 | 0.569 | 1.44 | 1.46 | 1.13 | 0.538 | 0.606 | 0.757 | 1.79 | 0.793 | 2.13 | 1.18 | 0.605 | 1.31 | 0.396
LLINKYGLSDH [SCP2_Y151_A155D] | 0.645 | 0.546 | 0.826 | 0.794 | 1.08 | 0.62 | 0.712 | 0.678 | 0.646 | 1.19 | 0.709 | 1.45 | 0.849 | 1.11 | 0.939 | 0.44

Source: the supplement of paper PMC10065799, “High-throughput profiling of sequence recognition by tyrosine kinases and SH2 domains using bacterial peptide display” (eLife, 2023)
